According to patent publication US8409577 (EMERGENT PRODUCT DEVELOPMENT SEATTLE, dated 2013):

Target: T1, CD20 (human, UniProt P11836 1-297)
T1 construct: whole, on cells; target on WIL2-S (WIL-2S), Ramos and BJAB cells; also called human CD20
T1 sequence (looked up): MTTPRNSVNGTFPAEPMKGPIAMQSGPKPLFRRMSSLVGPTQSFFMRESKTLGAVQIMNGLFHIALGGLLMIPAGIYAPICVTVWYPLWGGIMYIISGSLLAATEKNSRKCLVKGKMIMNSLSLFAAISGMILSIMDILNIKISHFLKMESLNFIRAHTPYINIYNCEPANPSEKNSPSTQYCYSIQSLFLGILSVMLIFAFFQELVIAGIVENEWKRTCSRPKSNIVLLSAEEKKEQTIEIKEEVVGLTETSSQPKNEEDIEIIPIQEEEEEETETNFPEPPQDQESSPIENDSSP
Assay: flow cytometry: 2e12 HL SMIP on WIL-2S cells (CD20), then CD28mIgG 5 ug/ml and FITC anti-mouse 1:100
Method: In this case, the fusion proteins were first bound to WIL-2S CD20 expressing cells, and binding was then detected with CD28mIgG (5 µg/ml) and FITC anti-mouse reagent at 1:100.

B1: 2E12IgG-VHVL SMIP (Fc fusion)
chain: VQVQLKESGPGLVAPSQSLSITCTVSGFSLTGYGVNWVRQPPGKGLEWLGMIWGDGSTDYNSALKSRLSITKDNSKSQVFLKMNSLQTDDTARYYCARDGYSNFHYYVMDYWGQGTSVTVSSGGGGSGGGGSGGGGSGGGGSDIVLTQSPASLAVSLGQRATISCRASESVEYYVTSLMQWYQQKPGQPPKLLISAASNVESGVPARFSGSGSGTDFSLNIHPVEEDDIAMYFCQQSRKVPWTFGGGTKLEIKR
notes: also called 2e12 VHVL SMIP; 2e12 HL SMIP; not shown: IgG hinge-CH2-CH3 of the SMIP, not described
B1: no binding (tested: about 5 ug/mL (read off the axis)).
